Where two headings read alike, the source gives them in different places.
Tests used:
Test in all cases: fluorescence anisotropy
SAMHD1 wild-type [1] = target: T1, SAMHD1 wild-type (human, UniProt Q9Y3Z3 1-626)
[2] = target: T2, SAMHD1 C-terminal peptide (human, UniProt Q9Y3Z3 583-626)
T2 chain: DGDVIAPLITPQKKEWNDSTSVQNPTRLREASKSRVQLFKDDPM

SAMHD1 wild-type [3] = target: T1, SAMHD1 wild-type; remark: listed apart in the source
SAMHD1 RKRR = SAMHD1 RKRR (human, UniProt Q9Y3Z3 1-626, R333E;K336E;R371E;R372E)
SAMHD1 RR = SAMHD1 RR (human, UniProt Q9Y3Z3 1-626, R371E;R372E)
SAMHD1 RK = SAMHD1 RK (human, UniProt Q9Y3Z3 1-626, R333E;K336E)

B1: FAM-dT60 (ssDNA)
DNA: TTTTTTTTTTTTTTTTTTTTTTTTTTTTTTTTTTTTTTTTTTTTTTTTTTTTTTTTTTTT
apparent K (half saturation) (SAMHD1 wild-type [1]): 700 ± 100 nM
Kd [2]: 54 ± 5 µM
apparent K (half saturation) (SAMHD1 wild-type [3]): 500 ± 100 nM
apparent K (half saturation) (SAMHD1 RKRR): 30 ± 2 µM
apparent K (half saturation) (SAMHD1 RR): 15 ± 1 µM
apparent K (half saturation) (SAMHD1 RK): 7.6 ± 0.4 µM

From paper PMC5531264
